Measured values taken from PMC5603729 (Cell Reports, 2017).

T1: S. cerevisiae Rrp45 (subunit of the crystallised Exo-9) (S. cerevisiae, UniProt Q05636 1-305)
T1 sequence: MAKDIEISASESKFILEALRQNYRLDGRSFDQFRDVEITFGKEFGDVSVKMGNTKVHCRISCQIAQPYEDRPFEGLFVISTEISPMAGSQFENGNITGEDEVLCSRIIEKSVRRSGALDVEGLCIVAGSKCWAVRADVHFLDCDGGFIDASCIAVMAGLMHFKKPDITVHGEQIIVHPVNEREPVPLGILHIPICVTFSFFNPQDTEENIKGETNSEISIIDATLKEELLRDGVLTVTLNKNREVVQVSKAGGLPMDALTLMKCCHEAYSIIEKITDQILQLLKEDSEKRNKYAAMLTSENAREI

B1: Mpp6^FL S184C labeled with red-maleimide (natural protein)
chain: MSANNGVTGKLSSRVMNMKFMKFGKTDDEESSNSNTPSNINSDVEPIEQKGKLFGLDDSAWDLNSYKDDLKKISGKEKKKVKRVVYKKRPNLIISNVGYSELRKPEGVISGRKTFGDNSDDSGSRKRKFDEGEQNEDEKRDAKDKEFTGSQDDGEDEYDLDKLFKDSIKKKKTNHNGKNKNRNCKK
modifications: cysteine-reactive fluorophore (red-maleimide) on the introduced cysteine 184
B2: S. cerevisiae Rrp40 (subunit of the crystallised Exo-9) (natural protein)
chain: MSTFIFPGDSFPVDPTTPVKLGPGIYCDPNTQEIRPVNTGVLHVSAKGKSGVQTAYIDYSSKRYIPSVNDFVIGVIIGTFSDSYKVSLQNFSSSVSLSYMAFPNASKKNRPTLQVGDLVYARVCTAEKELEAEIECFDSTTGRDAGFGILEDGMIIDVNLNFARQLLFNNDFPLLKVLAAHTKFEVAIGLNGKIWVKCEELSNTLACYRTIMECCQKNDTAAFKDIAKRQFKEILTVKEE

Experiments:
[1] = biological target: S. cerevisiae Exo-9 core complex (recombinant, untagged) (S. cerevisiae, UniProt P46948;Q12277;P25359;Q05636;P53256;P48240;P38792;Q08285;P53859); experiment: MST
[2] = biological target: T1, S. cerevisiae Rrp45 (subunit of the …); experiment: crystal structure

Row | Binder | Kd [1] | binding result [2]
1 | B1 | ~82 nM | –
2 | B2 | – | binds
